Measured values as given in patent US20240018247A1 (MUSC FOUNDATION FOR RESEARCH DEVELOPMENT, published 2024).

Key:
human P-selectin = target: T1, human P-selectin (human, UniProt P16109 42-771, limits assumed); assay: ELISA binding assay on human P-selectin, OD 450
T1 construct: also called human P-selectin antigen
T1 sequence (looked up): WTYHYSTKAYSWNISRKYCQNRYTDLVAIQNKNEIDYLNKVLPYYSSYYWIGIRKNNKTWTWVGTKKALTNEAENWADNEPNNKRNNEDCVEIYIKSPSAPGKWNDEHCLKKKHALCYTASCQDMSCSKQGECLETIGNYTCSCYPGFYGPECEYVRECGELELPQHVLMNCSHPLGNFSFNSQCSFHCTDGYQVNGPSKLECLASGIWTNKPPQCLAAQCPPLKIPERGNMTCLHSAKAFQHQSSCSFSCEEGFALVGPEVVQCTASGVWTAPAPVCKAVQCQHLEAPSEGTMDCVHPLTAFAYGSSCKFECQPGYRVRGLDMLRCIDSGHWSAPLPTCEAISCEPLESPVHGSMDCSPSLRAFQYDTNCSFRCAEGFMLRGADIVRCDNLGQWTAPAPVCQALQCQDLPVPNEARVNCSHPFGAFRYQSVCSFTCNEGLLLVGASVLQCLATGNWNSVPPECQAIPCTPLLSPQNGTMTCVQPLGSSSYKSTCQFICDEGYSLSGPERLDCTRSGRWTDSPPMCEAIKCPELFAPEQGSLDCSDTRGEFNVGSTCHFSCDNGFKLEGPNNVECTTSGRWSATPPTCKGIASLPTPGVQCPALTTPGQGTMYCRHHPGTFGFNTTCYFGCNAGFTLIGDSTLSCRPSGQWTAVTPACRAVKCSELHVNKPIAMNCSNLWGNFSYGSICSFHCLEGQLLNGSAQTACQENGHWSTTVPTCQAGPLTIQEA
Experimental: To evaluate the ability of B.PselscFv-Crry and NB.PselscFv-Crry to inhibit complement activation, a zymosan A bead assay was performed. Briefly, flow cytometric analysis of C3 deposition on zymosan A particles (SigmaAldrich) was performed and the extent of complement inhibition was normalized by the subtraction of post-IRI complement deposition levels from their baseline levels. Both B.PSelscFv-Crry and NB.PSelscFv-Crry constructs inhibit complement activation in a dose-dependent manner (FIG. 21A). Further, to evaluate the binding of B.PselscFv-Crry and NB.PselscFv-Crry to human P-selectin, an ELISA was performed. Briefly, non-blocking and blocking fusion proteins (NB.PselscFv-Crry and B.PselscFv-Crry, respectively) were plated at varying doses in addition to varying doses of C2-Crry as a negative control.

[1] = target: T2, P-Selectin-His tag (mouse) (mouse, UniProt Q01102 42-709, limits assumed); assay: SPRi (PlexArray HT), mouse P-Selectin-His printed on chip, fusion protein as analyte, 25 C
T2 construct: also called mouse P-selectin; mouse antigen P-Selectin; not shown: His tag
T2 sequence (looked up): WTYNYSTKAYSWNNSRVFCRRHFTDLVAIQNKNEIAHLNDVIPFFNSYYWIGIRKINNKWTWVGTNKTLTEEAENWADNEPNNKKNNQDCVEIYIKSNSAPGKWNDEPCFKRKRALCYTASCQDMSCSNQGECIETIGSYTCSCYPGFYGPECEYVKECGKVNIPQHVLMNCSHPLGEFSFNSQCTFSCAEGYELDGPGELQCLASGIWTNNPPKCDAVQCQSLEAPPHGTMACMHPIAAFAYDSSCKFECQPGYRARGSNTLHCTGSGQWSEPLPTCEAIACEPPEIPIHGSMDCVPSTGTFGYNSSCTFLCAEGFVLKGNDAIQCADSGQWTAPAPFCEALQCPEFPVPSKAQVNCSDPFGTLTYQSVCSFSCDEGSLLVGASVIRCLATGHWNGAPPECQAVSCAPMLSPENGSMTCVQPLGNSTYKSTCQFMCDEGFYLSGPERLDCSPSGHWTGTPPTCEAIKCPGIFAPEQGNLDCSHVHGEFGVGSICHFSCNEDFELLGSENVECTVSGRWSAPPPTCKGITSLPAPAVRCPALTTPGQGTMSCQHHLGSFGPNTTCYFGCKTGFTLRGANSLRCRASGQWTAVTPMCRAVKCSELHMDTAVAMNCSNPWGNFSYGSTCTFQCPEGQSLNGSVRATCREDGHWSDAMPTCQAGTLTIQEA
Experimental: FIG. 20A through FIG. 20C depict a representative experimental evaluation of the binding affinity of mouse antigen P-Selectin to B.PselscFv-Crry and NB.PselscFv-Crry. SPR binding assays were performed to measure binding affinity KD and kinetic parameters ka, kd of B.PselscFv-Crry and NB.PselscFv-Crry. The ligand is P-Selectin-His tag (mouse) which was printed onto the chip. The analytes are B.PselscFv-Crry and NB.PselscFv-Crry. After data collection with SPR and kinetics fitting and analysis, the KD, ka, and kd were calculated. FIG. 20A depicts exemplary kinetics fitting curves of P-Selectin to B.PselscFv-Crry. FIG. 20B depicts exemplary kinetics fitting curves of P-Selectin to NB.PselscFv-Crry.
To measure binding affinity, surface plasmon resonance was used with mouse P-selectin as the immobilized ligand and B.PselscFv-Crry (FIG. 20A) and NB.PselscFv-Crry (FIG. 20B) as the analytes. Various concentrations of P-Selectin dissolved in water were manually printed onto the bare gold-coated (thickness 47 nm) PlexArray Nanocapture Sensor Chip (Plexera Bioscience, Seattle, WA, US) at 40% humidity. Each concentration was printed in replicate, and each spot contained 0.2 μL of sample solution. The chip was incubated in 80% humidity at 4° C. for overnight, and rinsed with 10×PBST for 10 min, 1×PBST for 10 min, and deionized water twice for 10 min. The chip was then blocked with 5% (w/v) non-fat milk in water overnight, and washed with 10×PBST for 10 min, 1×PBST for 10 min, and deionized water twice for 10 min before being dried under a stream of nitrogen prior to use. SPRi measurements were performed with PlexAray HT (Plexera Bioscience, Seattle, WA, US). Collimated light (660 nm) passes through the coupling prism, reflects off the SPR-active gold surface, and is received by the CCD camera. Buffers and samples were injected by a non-pulsatile piston pump into the 30 μL flowcell that was mounted on the coupling prim.

EC50 (read off the curve) (human P-selectin): ~0.06 µg/mL | Kd [1]: 630 nM | koff [1]: 0.00179 s⁻¹ | kon [1]: 2840 M⁻¹ s⁻¹
B1: NB.PSelscFv-Crry (anti-pselectin 2.3scFv-Crry, non-blocking) (scFv)
chain: QIQLVLSGPELKKPGESVKISCKASGYTFTTYGMSWVKQAPGKGLKWMGWINTSSGVPTYADDFKGRFAFSLETSASTAYLQINNLKNEDTATYFCARGGGYYGAYYFYYWGQGTTLTVSSGGGGSGGGGSGGGGSDIQMTQSPASLSASVGETVTITCRTSDNINSYLAWYLQRQGKSPQLLVYNAKTLTEGVPSRFSGSGSGTQFSLKINSLQPEDFGSYYCQHHYGPPPTFGGGTKLEIKGGGGSGGGGSCPAPSQLPSAKPINLTDESMFPIGTYLLYECLPGYIKRQFSITCKQDSTWTSAEDKCIRKQCKTPSDPENGLVHVHTGIQFGSRINYTCNQGYRLIGSSSAVCVITDQSVDWDTEAPICEWIPCEIPPGIPNGDFFSSTREDFHYGMVVTYRCNTDARGKALFNLVGEPSLYCTSNDGEIGVWSGPPPQCIELNKCTPPPYVENAVMLSENRSLFSLRDIVEFRCHPGFIMKGASSVHCQSLNKWEPELPSCFKGVICRLPQEMSGFQKGLGMKKEYYYGENVTLECEDGYTLEGSSQSQCQSDGSWNPLLAKCVSRSIIEGRHHHHHH
notes: also called Psel.NB; Psel-NB
